Test system: Escherichia coli TOP10
Assay: shrunken log2 fold change of peptide-encoding DNA abundance (4.5 h post-induction vs induction); higher = less antimicrobial activity (less host growth inhibition)
Conditions: time post-induction: 4.5 h; library: site-saturation at positions 5, 18, 19, 20
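Further: peptides expressed intracellularly from a pBAD plasmid library in pooled LB shake-flask culture, induced with 0.3% L-arabinose, DNA abundance read by NGS, three biological replicates, DESeq2 with apeglm shrinkage.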

Sequence	shrunken log2 fold change
RRIRWRPPRLPRPRPRPISKPRP	-0.215
RRIRYRPPRLPRPRPRPESEPRP	-0.0162
RRIRTRPPRLPRPRPRPPVRPRP	0.558
RRIRHRPPRLPRPRPRPSPAPRP	0.108
RRIRGRPPRLPRPRPRPPVAPRP	1.22
RRIRHRPPRLPRPRPRPRITPRP	-0.0394
RRIRGRPPRLPRPRPRPVFWPRP	0.768
RRIRYRPPRLPRPRPRPTVVPRP	-0.477
RRIRLRPPRLPRPRPRPLPEPRP	0.39
RRIRCRPPRLPRPRPRPYKSPRP	-1.19
RRIRMRPPRLPRPRPRPGSRPRP	0.991
RRIRRRPPRLPRPRPRPIMMPRP	-0.00819
RRIRQRPPRLPRPRPRPKRYPRP	-0.138
RRIRIRPPRLPRPRPRPTSGPRP	-0.00782
RRIRYRPPRLPRPRPRPSHNPRP	-0.628
RRIRIRPPRLPRPRPRPQVVPRP	-0.0262
RRIRMRPPRLPRPRPRPSICPRP	-0.176
RRIRPRPPRLPRPRPRPYEFPRP	-0.0919
RRIRNRPPRLPRPRPRPEVYPRP	0.0702
RRIRTRPPRLPRPRPRPPCCPRP	0.00432
RRIRFRPPRLPRPRPRPEGGPRP	0.586
RRIRNRPPRLPRPRPRPQPNPRP	-0.047
RRIRTRPPRLPRPRPRPNPTPRP	0.207
RRIRMRPPRLPRPRPRPEIRPRP	-0.0241
RRIRKRPPRLPRPRPRPTDIPRP	-0.0678

Sequence	shrunken log2 fold change
RRIRDRPPRLPRPRPRPGHEPRP	-0.00201
RRIRCRPPRLPRPRPRPRLWPRP	1.01
RRIRPRPPRLPRPRPRPPDVPRP	0.274
RRIRKRPPRLPRPRPRPYRCPRP	-0.12
RRIRYRPPRLPRPRPRPRTHPRP	-0.318
RRIRARPPRLPRPRPRPDMPPRP	0.0755
RRIRTRPPRLPRPRPRPESAPRP	0.0458
RRIRNRPPRLPRPRPRPFHMPRP	-0.458
RRIRNRPPRLPRPRPRPIVVPRP	0.0207
RRIRMRPPRLPRPRPRPADGPRP	0.19
RRIRFRPPRLPRPRPRPHSHPRP	-0.939
RRIRARPPRLPRPRPRPVRYPRP	2.39
RRIRGRPPRLPRPRPRPFNCPRP	-0.116
RRIRERPPRLPRPRPRPERNPRP	-0.0672
RRIRTRPPRLPRPRPRPQWDPRP	-0.0974
RRIRGRPPRLPRPRPRPMPWPRP	0.25
RRIRWRPPRLPRPRPRPKHRPRP	0.149
RRIRCRPPRLPRPRPRPHENPRP	-0.0452
RRIRSRPPRLPRPRPRPQMLPRP	-0.195
RRIRTRPPRLPRPRPRPYLHPRP	-0.367
RRIRMRPPRLPRPRPRPIFAPRP	0.556
RRIRSRPPRLPRPRPRPPYVPRP	-0.215
RRIRRRPPRLPRPRPRPRRPPRP	0.639
RRIRLRPPRLPRPRPRPMCPPRP	0.128
RRIRERPPRLPRPRPRPGLDPRP	-0.0204

Sequence	shrunken log2 fold change
RRIRSRPPRLPRPRPRPKETPRP	-0.0164
RRIRDRPPRLPRPRPRPNNLPRP	-0.556
RRIRRRPPRLPRPRPRPAEGPRP	-0.0943
RRIRERPPRLPRPRPRPCFIPRP	-0.73
RRIRTRPPRLPRPRPRPTVEPRP	-0.152
RRIRCRPPRLPRPRPRPVMMPRP	-0.214
RRIRHRPPRLPRPRPRPFMWPRP	-0.137
RRIRPRPPRLPRPRPRPMCSPRP	-0.152
RRIRLRPPRLPRPRPRPFYGPRP	-0.157
RRIRCRPPRLPRPRPRPCKEPRP	-0.35
RRIRHRPPRLPRPRPRPIEIPRP	-0.161
RRIRMRPPRLPRPRPRPVKVPRP	0.0321
RRIRFRPPRLPRPRPRPQAFPRP	-0.175
RRIRIRPPRLPRPRPRPSFPPRP	-0.779
RRIRVRPPRLPRPRPRPGRIPRP	0.0466
RRIRMRPPRLPRPRPRPEICPRP	0.00534
RRIRHRPPRLPRPRPRPKDIPRP	-0.504
RRIRRRPPRLPRPRPRPMMLPRP	-0.142
RRIRMRPPRLPRPRPRPKGGPRP	0.115
RRIRDRPPRLPRPRPRPWIRPRP	-0.24
RRIRSRPPRLPRPRPRPGWCPRP	0.0616
RRIRHRPPRLPRPRPRPKRIPRP	-0.0337
RRIRYRPPRLPRPRPRPTARPRP	-0.0799
RRIRHRPPRLPRPRPRPEWMPRP	0.188
RRIRFRPPRLPRPRPRPYEQPRP	0.00332

— the supplement of paper PMC9112550, “Optimization of the antimicrobial peptide Bac7 by deep mutational scanning” (BMC Biology, 2022)
